Substrate: CC(C)=CCc1cc(CO)ccc1O
Experiment: purified protein
Type: biochemical, Boreostereum vibrans
Settings: NADPH 0.1 mM, 50 mM sodium phosphate pH 7.5, 28 °C, 30 min

B1: VibO (Boreostereum vibrans) (protein)
chain: MAAVENFEGYVEPELFERPGTSLPNKLGVMPQLTWPNVLNGTNCEKPAVPNYKPPSKVDVIIIGAGPVGLTTAACLLRQGITVRILDRSPHPLPVGRADGLQPRSMEVFDLLGLGEEVYHVGIRVEHTTVYKDGKQHIFAESHQAPGNEAHYTGLHACTQTEVEHLLIRDLIRHDILVERPCTATSYTFDEEADASVTHPITVNITNEATGAEEVVTARFLVGSDGAHSMIRKSLPIEFPGVKTDLHWGIVDAVINSDFPHRWTFGTVLNSEYGGCLIIPRERNMVRLYVQLRAEPGKAFDHSKWGPEEILVILNKVFAPYTLSYAEPVDWYTILTINERVATSFTYKDRIFLAGDSCHVHSAKGAFGMNTGVMDAHNLAWKLAMLCRGIAKPSLLASYDVERRENALRAVATSARYLRFVGNCTFQAIDGSGEVDKEADELVVPPGEDKDVFYFKKFVGQVGRFLIGLDVDYAENALNKLSPAVSRARAGYRASNPRVALSRSHSGRLYHSFGHLGQFTLLVFASNMGGALNAKLHALDSYLAGPSSFYHAYGGADTFKIVVVVRATPSQADQRVKTFPFLSKAGHTVYDDQLPLSHFGGDAHALYGVSHEEGAIVVVRPDSWIGTSSTISDARSLESYFDGFLFKSTEGSY
notes: full length, N-terminal His6 tag, expressed in E. coli BL21(DE3) (pET28a(+)); domains cover residues 1-653; dimer; copurified FAD
- Km: 407 ± 83 µM
- kcat: 0.111 ± 0.010 min^–1
